# Laboratory results taken from patent US20100260668A1 (published 2010).
# Molecular target: T1, VEGF (UniProt P15692-4 27-191)
# T1 construct: Bought reagent; also called vascular endothelial growth factor
# Assay: SPR (Biacore), DVD-Ig captured, VEGF in solution
# T1 sequence (P15692 other isoform, or with tags, fused parts or gaps limits assumed): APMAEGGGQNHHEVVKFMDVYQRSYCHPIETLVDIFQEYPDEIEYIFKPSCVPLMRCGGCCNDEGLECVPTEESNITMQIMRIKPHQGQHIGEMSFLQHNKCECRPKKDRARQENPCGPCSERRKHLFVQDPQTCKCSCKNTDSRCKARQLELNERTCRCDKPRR
Binder,Kd,koff,kon
"DVD449 (bispecific antibody, human IgG1, kappa, DVD-Ig; N-term; VD AB069 (DLL4), C-term; VD AB070 (VEGF); HC linker long, LC linker long; also called DVD449H; DVD449L) heavy: not shown light: DIVMTQSPDSLAVSLGERATISCRASESVDNYGISFMKWFQQKPGQPPKLLIYAASNQGSGVPDRFSGSGSGTDFTLTISSLQAEDVAVYYCQQSKEVPWTFGGGTKVEIKRTVAAPSVFIFPPDIQMTQSPSSLSASVGDRVTITCRASQDVSTAVAWYQQKPGKAPKLLIYSASFLYSGVPSRFSGSGSGTDFTLTISSLQPEDFATYYCQQSYTTPPTFGQGTKVEIKRTVAAPSVFIFPPSDEQLKSGTASVVCLLNNFYPREAKVQWKVDNALQSGNSQESVTEQDSKDSTYSLSSTLTLSKADYEKHKVYACEVTHQGLSSPVTKSFNRGEC",903 pM,0.000208 s⁻¹,230000 M⁻¹ s⁻¹
"DVD455 (bispecific antibody, human IgG1, kappa, DVD-Ig; N-term; VD AB069 (DLL4), C-term; VD AB070 (VEGF); HC linker long, LC linker short; also called DVD455H; DVD455L) heavy: not shown light: DIVMTQSPDSLAVSLGERATISCRASESVDNYGISFMKWFQQKPGQPPKLLIYAASNQGSGVPDRFSGSGSGTDFTLTISSLQAEDVAVYYCQQSKEVPWTFGGGTKVEIKRTVAAPDIQMTQSPSSLSASVGDRVTITCRASQDVSTAVAWYQQKPGKAPKLLIYSASFLYSGVPSRFSGSGSGTDFTLTISSLQPEDFATYYCQQSYTTPPTFGQGTKVEIKRTVAAPSVFIFPPSDEQLKSGTASVVCLLNNFYPREAKVQWKVDNALQSGNSQESVTEQDSKDSTYSLSSTLTLSKADYEKHKVYACEVTHQGLSSPVTKSFNRGEC",460 pM,8.15e-05 s⁻¹,177000 M⁻¹ s⁻¹
"DVD461 (bispecific antibody, human IgG1, kappa, DVD-Ig; N-term; VD AB069 (DLL4), C-term; VD AB070 (VEGF); HC linker short, LC linker long; also called DVD461H; DVD461L) heavy: not shown light: DIVMTQSPDSLAVSLGERATISCRASESVDNYGISFMKWFQQKPGQPPKLLIYAASNQGSGVPDRFSGSGSGTDFTLTISSLQAEDVAVYYCQQSKEVPWTFGGGTKVEIKRTVAAPSVFIFPPDIQMTQSPSSLSASVGDRVTITCRASQDVSTAVAWYQQKPGKAPKLLIYSASFLYSGVPSRFSGSGSGTDFTLTISSLQPEDFATYYCQQSYTTPPTFGQGTKVEIKRTVAAPSVFIFPPSDEQLKSGTASVVCLLNNFYPREAKVQWKVDNALQSGNSQESVTEQDSKDSTYSLSSTLTLSKADYEKHKVYACEVTHQGLSSPVTKSFNRGEC",750 pM,0.000202 s⁻¹,269000 M⁻¹ s⁻¹
"DVD513 (bispecific antibody, human IgG1, kappa, DVD-Ig; N-term; VD AB073 (DLL4), C-term; VD AB070 (VEGF); HC linker short, LC linker short; also called DVD513H; DVD513L) heavy: not shown light: QAVVTQESALTTSPGETVTLTCRSSTGAVTTSNYANWVQEKPDHLFTGLIGGTNNRAPGVPARFSGSLIGDKAALTITGAQTEDEAIYFCALWYSNHWVFGGGTKLTVLGQPKAAPDIQMTQSPSSLSASVGDRVTITCRASQDVSTAVAWYQQKPGKAPKLLIYSASFLYSGVPSRFSGSGSGTDFTLTISSLQPEDFATYYCQQSYTTPPTFGQGTKVEIKRTVAAPSVFIFPPSDEQLKSGTASVVCLLNNFYPREAKVQWKVDNALQSGNSQESVTEQDSKDSTYSLSSTLTLSKADYEKHKVYACEVTHQGLSSPVTKSFNRGEC",1240 pM,0.000497 s⁻¹,400000 M⁻¹ s⁻¹
"DVD519 (bispecific antibody, human IgG1, kappa, lambda, DVD-Ig; N-term; VD AB073 (DLL4), C-term; VD AB070 (VEGF); HC linker long, LC linker long; also called DVD519H; DVD519L) heavy: not shown light: QAVVTQESALTTSPGETVTLTCRSSTGAVTTSNYANWVQEKPDHLFTGLIGGTNNRAPGVPARFSGSLIGDKAALTITGAQTEDEAIYFCALWYSNHWVFGGGTKLTVLGQPKAAPSVTLFPPDIQMTQSPSSLSASVGDRVTITCRASQDVSTAVAWYQQKPGKAPKLLIYSASFLYSGVPSRFSGSGSGTDFTLTISSLQPEDFATYYCQQSYTTPPTFGQGTKVEIKRTVAAPSVFIFPPSDEQLKSGTASVVCLLNNFYPREAKVQWKVDNALQSGNSQESVTEQDSKDSTYSLSSTLTLSKADYEKHKVYACEVTHQGLSSPVTKSFNRGEC",223 pM,0.00522 s⁻¹,2.35e+07 M⁻¹ s⁻¹
"DVD525 (bispecific antibody, human IgG1, kappa, DVD-Ig; N-term; VD AB073 (DLL4), C-term; VD AB070 (VEGF); HC linker long, LC linker short; also called DVD525H; DVD525L) heavy: not shown light: QAVVTQESALTTSPGETVTLTCRSSTGAVTTSNYANWVQEKPDHLFTGLIGGTNNRAPGVPARFSGSLIGDKAALTITGAQTEDEAIYFCALWYSNHWVFGGGTKLTVLGQPKAAPDIQMTQSPSSLSASVGDRVTITCRASQDVSTAVAWYQQKPGKAPKLLIYSASFLYSGVPSRFSGSGSGTDFTLTISSLQPEDFATYYCQQSYTTPPTFGQGTKVEIKRTVAAPSVFIFPPSDEQLKSGTASVVCLLNNFYPREAKVQWKVDNALQSGNSQESVTEQDSKDSTYSLSSTLTLSKADYEKHKVYACEVTHQGLSSPVTKSFNRGEC",447 pM,0.000483 s⁻¹,1.08e+06 M⁻¹ s⁻¹
"DVD531 (bispecific antibody, human IgG1, kappa, lambda, DVD-Ig; N-term; VD AB073 (DLL4), C-term; VD AB070 (VEGF); HC linker short, LC linker long; also called DVD531H; DVD531L) heavy: not shown light: QAVVTQESALTTSPGETVTLTCRSSTGAVTTSNYANWVQEKPDHLFTGLIGGTNNRAPGVPARFSGSLIGDKAALTITGAQTEDEAIYFCALWYSNHWVFGGGTKLTVLGQPKAAPSVTLFPPDIQMTQSPSSLSASVGDRVTITCRASQDVSTAVAWYQQKPGKAPKLLIYSASFLYSGVPSRFSGSGSGTDFTLTISSLQPEDFATYYCQQSYTTPPTFGQGTKVEIKRTVAAPSVFIFPPSDEQLKSGTASVVCLLNNFYPREAKVQWKVDNALQSGNSQESVTEQDSKDSTYSLSSTLTLSKADYEKHKVYACEVTHQGLSSPVTKSFNRGEC",584 pM,0.000442 s⁻¹,756000 M⁻¹ s⁻¹
"DVD489 (bispecific antibody, human IgG1, kappa, L234A L235A, DVD-Ig; N-term; VD AB072 (DLL4), C-term; VD AB070 (VEGF); HC linker short, LC linker short; also called DVD489H; DVD489L) heavy: not shown light: DIQMTQSSSYLSVSLGGRVTITCKASDHINNWLAWYQQKPGNAPRLLISGATSLETGVPSRFSGSGSGKDYTLSITSLQTEDVATYYCQQYWSIPLTFGAGTKLELKRTVAAPDIQMTQSPSSLSASVGDRVTITCRASQDVSTAVAWYQQKPGKAPKLLIYSASFLYSGVPSRFSGSGSGTDFTLTISSLQPEDFATYYCQQSYTTPPTFGQGTKVEIKRTVAAPSVFIFPPSDEQLKSGTASVVCLLNNFYPREAKVQWKVDNALQSGNSQESVTEQDSKDSTYSLSSTLTLSKADYEKHKVYACEVTHQGLSSPVTKSFNRGEC",1760 pM,0.000365 s⁻¹,207000 M⁻¹ s⁻¹
